Data taken from paper PMC8373891.

T1: IFNAR1/IFNAR2 receptor (human (endogenous in HEK293)) (UniProt P17181)
T1 sequence 1: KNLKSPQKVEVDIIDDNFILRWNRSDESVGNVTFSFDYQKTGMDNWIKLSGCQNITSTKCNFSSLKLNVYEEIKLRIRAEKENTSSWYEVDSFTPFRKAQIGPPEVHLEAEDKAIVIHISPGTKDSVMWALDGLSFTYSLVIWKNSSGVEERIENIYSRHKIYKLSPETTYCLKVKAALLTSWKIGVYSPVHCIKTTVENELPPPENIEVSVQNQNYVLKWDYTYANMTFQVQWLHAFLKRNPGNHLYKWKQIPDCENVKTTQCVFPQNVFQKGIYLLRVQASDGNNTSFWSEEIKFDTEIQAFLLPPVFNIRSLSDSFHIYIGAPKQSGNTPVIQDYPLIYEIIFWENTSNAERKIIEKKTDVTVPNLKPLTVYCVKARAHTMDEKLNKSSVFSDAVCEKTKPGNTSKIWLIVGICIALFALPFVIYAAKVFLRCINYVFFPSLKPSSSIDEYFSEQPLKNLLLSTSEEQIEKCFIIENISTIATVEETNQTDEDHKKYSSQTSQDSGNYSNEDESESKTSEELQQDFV
T1 sequence 2: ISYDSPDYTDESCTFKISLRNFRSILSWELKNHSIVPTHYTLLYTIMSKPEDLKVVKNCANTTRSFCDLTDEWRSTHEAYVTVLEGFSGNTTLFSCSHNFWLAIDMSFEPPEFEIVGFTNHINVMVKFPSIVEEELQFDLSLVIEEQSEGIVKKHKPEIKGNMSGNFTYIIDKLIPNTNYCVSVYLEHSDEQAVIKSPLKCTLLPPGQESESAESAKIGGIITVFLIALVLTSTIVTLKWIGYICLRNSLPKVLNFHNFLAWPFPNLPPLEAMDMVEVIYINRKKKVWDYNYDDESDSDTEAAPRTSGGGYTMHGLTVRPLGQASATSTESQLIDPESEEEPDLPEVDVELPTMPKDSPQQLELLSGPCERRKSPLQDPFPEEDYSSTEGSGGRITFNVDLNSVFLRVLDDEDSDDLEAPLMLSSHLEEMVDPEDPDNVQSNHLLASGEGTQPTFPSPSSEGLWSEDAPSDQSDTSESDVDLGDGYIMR

B1: IFNα-7 (ligand)
chain: CDLPQTHSLRNRRALILLAQMGRISPFSCLKDRHEFRFPEEEFDGHQFQKTQAISVLHEMIQQTFNLFSTEDSSAAWEQSLLEKFSTELYQQLNDLEACVIQEVGVEETPLMNEDFILAVRKYFQRITLYLMEKKYSPCAWEVVRAEIMRSFSFSTNLKKGLRRKD
B2: IFNα-10 (ligand)
chain: CDLPQTHSLGNRRALILLGQMGRISPFSCLKDRHDFRIPQEEFDGNQFQKAQAISVLHEMIQQTFNLFSTEDSSAAWEQSLLEKFSTELYQQLNDLEACVIQEVGVEETPLMNEDSILAVRKYFQRITLYLIERKYSPCAWEVVRAEIMRSLSFSTNLQKRLRRKD

Biological target: T1, IFNAR1/IFNAR2 receptor (human (endogenous in HEK293))

| EC50 of ISG54-driven secreted embryonic alkaline phosphatase in the HEK293 (HEK-BLUE IFN-αβ) reporter cell line, dose response, 24 h | Binder |
| --- | --- |
| 3.3 nM | B1 |
| 0.3 nM | B2 |
